Measurements: PMC10932109, “Solution Structures of Two Different FRP-OCP Complexes as Revealed via SEC-SANS” (International Journal of Molecular Sciences, 2024)
“And” between values parts separate entries of the source, which are not always exact repeats. Equal entries are not always repeated.

How the values were obtained:
[1] = biological target: OCPR (Synechocystis sp. PCC 6803) (UniProt P74102); conditions: cited from earlier work
[2] = biological target: OCPO (Synechocystis sp. PCC 6803) (UniProt P74102); conditions: cited from earlier work
[3] = biological target: T1, orange carotenoid protein lacking the N-terminal extension (^∆NTEOCP^O) (Synechocystis sp. PCC 6803, UniProt P74102 13-317); assay: SEC + other: SANS; in-line SEC-SANS at D22 (ILL); Superdex 200 Increase 10/300 GL; 25 °C; 250 µL injected at about 5 mg/mL total protein; two fractions (high MW, low MW) analysed separately; stoichiometries assigned from dimensions, DAMMIF shapes and Pepsi-SANS FlexFit models; conditions: both partners purified
T1 construct: glycine left from the human rhinovirus 3C protease site (LEVLFQ/GP) after cleavage; the P of GP is read as Pro13 of OCP; Orange carotenoid protein (OCP), Synechocystis sp; PCC 6803, slr1963, from Pro13 (P-NTLAA...) to the C-terminus; the N-terminal extension is removed with the His-tag by 3C cleavage; Gene optimised for E. coli, vector pRSFDuet-1; also called ^ΔNTEOCP^O; compact mutant of OCP …
T1 sequence: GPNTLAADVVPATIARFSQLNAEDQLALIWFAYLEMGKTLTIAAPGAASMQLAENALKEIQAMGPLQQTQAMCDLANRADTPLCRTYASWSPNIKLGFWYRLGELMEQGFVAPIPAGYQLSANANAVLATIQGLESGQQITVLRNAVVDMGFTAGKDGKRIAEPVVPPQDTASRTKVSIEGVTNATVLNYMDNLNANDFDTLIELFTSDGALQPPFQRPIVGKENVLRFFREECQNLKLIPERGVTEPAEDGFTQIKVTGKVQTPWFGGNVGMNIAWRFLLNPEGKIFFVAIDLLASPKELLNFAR

[4] = biological target: the molecule itself; assay: as above

Molecule: FRP (from UniProt P74103)
- Kd [1]: 3 µM
- Kd [2]: 35 µM

B1: fluorescence recovery protein (FRP), wild type (natural protein, Synechocystis sp. PCC 6803)
chain: LQTAEAPWSQAETQSAHALFRKAYQRELDGLLATVQAQASQITQIDDLWKLHDFLSAKRHEIDGKYDDRQSVIIFVFAQLLKEGLVQAEELTFLAADKQSKIKALARL
notes: Fluorescence recovery protein (FRP), Synechocystis sp; PCC 6803, slr1964, wild type; also called wild-type FRP; dimeric FRP; source: E. coli, purified (Superdex 200 Increase 10/300, phosphate-buffered saline)
- stoichiometry N [3]: 2 FRP per ^∆NTEOCP^O (2:1 complex, low MW fraction) and 1 FRP per ^∆NTEOCP^O (2:2 complex, high MW fraction)
- binding result [4]: binds
